In the supplement of paper PMC10567573:

B1: ZNF75A (parent)
chain: RTHTGEQPYTCSICRRNFSRRSSL
B2: ZER1 (parent)
chain: KEMARKVIEHCSNFKEENMDTSR

Variants of: B1
Test: protein stability index of a GFP-peptide fusion (GPS, HEK-293T) (PSI 1-6); higher = more stable
Settings: c terminus: a fixed tail appended
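Note: lentivirally expressed fusions sorted by FACS into six bins by GFP to DsRed ratio, PSI derived from sequencing read proportions per bin multiplied by bin number.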

Compared with RTHTGEQPYTCSICRRNFSRRSSG [L24G], RTHTGEQPYTCSICRRNFSRRSSP [L24P] is higher in protein stability index: 3.1 for the first, 3.82 for the second.

Going from RTHTGEQPYTCSICRRNFSRRSSV [L24V] to RTHTGEQPYTCSICRRNFSRRSSQ [L24Q], the protein stability index rises from 2.29 to 3.05.

Compared with RTHTGEQPYTCSICRRNFSRRSSN [L24N], RTHTGEQPYTCSICRRNFSRRSSS [L24S] is higher in protein stability index: 2.56 for the first, 2.99 for the second.

First: RTHTGEQPYTCSICRRNFSRRSSE [L24E]
Second: RTHTGEQPYTCSICRRNFSRRSSD [L24D]
The protein stability index of the first is higher: 4.02 for the first, 2.71 for the second.

Compared with RTHTGEQPYTCSICRRNFSRRSSF [L24F], RTHTGEQPYTCSICRRNFSRRSSY [L24Y] is higher in protein stability index: 2.65 for the first, 3.03 for the second.

Going from RTHTGEQPYTCSICRRNFSRRSSH [L24H] to RTHTGEQPYTCSICRRNFSRRSSM [L24M], the protein stability index falls from 3.23 to 2.96.

Compared with RTHTGEQPYTCSICRRNFSRRSSI [L24I], RTHTGEQPYTCSICRRNFSRRSST [L24T] is higher in protein stability index: 2.79 for the first, 3.03 for the second.

Compared with RTHTGEQPYTCSICRRNFSRRSSW [L24W], RTHTGEQPYTCSICRRNFSRRSSC [L24C] is higher in protein stability index: 1.96 for the first, 2.63 for the second.

Going from RTHTGEQPYTCSICRRNFSRRSSK [L24K] to RTHTGEQPYTCSICRRNFSRRSSR [L24R], the protein stability index falls from 4.06 to 3.63.

Variants of: B2
Test: as above
Settings: c terminus: native

Going from KEMAEKVIEHCSNFKEENMDTSR [R5E] to KEMADKVIEHCSNFKEENMDTSR [R5D], the protein stability index rises from 4.72 to 4.9.

First: KEMACKVIEHCSNFKEENMDTSR [R5C]
Second: KEMAAKVIEHCSNFKEENMDTSR [R5A]
The protein stability index of the first is lower: 3.76 for the first, 4.4 for the second.

Compared with KEDARKVIEHCSNFKEENMDTSR [M3D], KEEARKVIEHCSNFKEENMDTSR [M3E] is lower in protein stability index: 4.86 for the first, 4.53 for the second.

Compared with KEQARKVIEHCSNFKEENMDTSR [M3Q], KECARKVIEHCSNFKEENMDTSR [M3C] is lower in protein stability index: 4.45 for the first, 4.08 for the second.

Compared with KEIARKVIEHCSNFKEENMDTSR [M3I], KEPARKVIEHCSNFKEENMDTSR [M3P] is higher in protein stability index: 3.29 for the first, 4.78 for the second.

Going from KELARKVIEHCSNFKEENMDTSR [M3L] to KEAARKVIEHCSNFKEENMDTSR [M3A], the protein stability index rises from 3.52 to 4.49.

First: KESARKVIEHCSNFKEENMDTSR [M3S]
Second: KEVARKVIEHCSNFKEENMDTSR [M3V]
The protein stability index of the first is higher: 4.64 for the first, 4.22 for the second.

Compared with KEKARKVIEHCSNFKEENMDTSR [M3K], KEYARKVIEHCSNFKEENMDTSR [M3Y] is lower in protein stability index: 4.36 for the first, 3.29 for the second.

Going from KEHARKVIEHCSNFKEENMDTSR [M3H] to KENARKVIEHCSNFKEENMDTSR [M3N], the protein stability index rises from 4.05 to 4.14.

Going from KERARKVIEHCSNFKEENMDTSR [M3R] to KEGARKVIEHCSNFKEENMDTSR [M3G], the protein stability index rises from 3.98 to 4.37.

Compared with KEFARKVIEHCSNFKEENMDTSR [M3F], KETARKVIEHCSNFKEENMDTSR [M3T] is higher in protein stability index: 1.72 for the first, 4.3 for the second.

Going from KEWARKVIEHCSNFKEENMDTSR [M3W] to KEMRRKVIEHCSNFKEENMDTSR [A4R], the protein stability index rises from 2.28 to 4.15.

First: KEMMRKVIEHCSNFKEENMDTSR [A4M]
Second: KEMVRKVIEHCSNFKEENMDTSR [A4V]
The protein stability index of the first is lower: 2.48 for the first, 2.59 for the second.

First: KEMHRKVIEHCSNFKEENMDTSR [A4H]
Second: KEMNRKVIEHCSNFKEENMDTSR [A4N]
The protein stability index of the first is lower: 4.02 for the first, 4.21 for the second.

Going from KEMCRKVIEHCSNFKEENMDTSR [A4C] to KEMIRKVIEHCSNFKEENMDTSR [A4I], the protein stability index falls from 3.02 to 2.32.

Going from KEMFRKVIEHCSNFKEENMDTSR [A4F] to KEMYRKVIEHCSNFKEENMDTSR [A4Y], the protein stability index rises from 1.9 to 2.89.

Compared with KEMPRKVIEHCSNFKEENMDTSR [A4P], KEMQRKVIEHCSNFKEENMDTSR [A4Q] is lower in protein stability index: 4.57 for the first, 4.21 for the second.

Going from KEMDRKVIEHCSNFKEENMDTSR [A4D] to KEMLRKVIEHCSNFKEENMDTSR [A4L], the protein stability index falls from 4.48 to 2.23.

Compared with KEMERKVIEHCSNFKEENMDTSR [A4E], KEMSRKVIEHCSNFKEENMDTSR [A4S] is lower in protein stability index: 4.39 for the first, 4.13 for the second.

Compared with KEMTRKVIEHCSNFKEENMDTSR [A4T], KEMKRKVIEHCSNFKEENMDTSR [A4K] is higher in protein stability index: 3.94 for the first, 4.29 for the second.

Compared with KEMGRKVIEHCSNFKEENMDTSR [A4G], TEMARKVIEHCSNFKEENMDTSR [K1T] is lower in protein stability index: 4.45 for the first, 3.65 for the second.

First: CEMARKVIEHCSNFKEENMDTSR [K1C]
Second: GEMARKVIEHCSNFKEENMDTSR [K1G]
The protein stability index of the first is lower: 2.6 for the first, 4.12 for the second.

First: QEMARKVIEHCSNFKEENMDTSR [K1Q]
Second: LEMARKVIEHCSNFKEENMDTSR [K1L]
The protein stability index of the first is higher: 4.3 for the first, 2.73 for the second.

Going from YEMARKVIEHCSNFKEENMDTSR [K1Y] to IEMARKVIEHCSNFKEENMDTSR [K1I], the protein stability index falls from 3.31 to 2.95.

Going from SEMARKVIEHCSNFKEENMDTSR [K1S] to NEMARKVIEHCSNFKEENMDTSR [K1N], the protein stability index rises from 3.87 to 4.24.

Compared with AEMARKVIEHCSNFKEENMDTSR [K1A], DEMARKVIEHCSNFKEENMDTSR [K1D] is higher in protein stability index: 3.7 for the first, 4.45 for the second.

Going from MEMARKVIEHCSNFKEENMDTSR [K1M] to HEMARKVIEHCSNFKEENMDTSR [K1H], the protein stability index rises from 2.75 to 4.3.

Compared with PEMARKVIEHCSNFKEENMDTSR [K1P], EEMARKVIEHCSNFKEENMDTSR [K1E] is higher in protein stability index: 3.36 for the first, 4.81 for the second.

Going from REMARKVIEHCSNFKEENMDTSR [K1R] to FEMARKVIEHCSNFKEENMDTSR [K1F], the protein stability index falls from 4.31 to 2.86.

Compared with WEMARKVIEHCSNFKEENMDTSR [K1W], VEMARKVIEHCSNFKEENMDTSR [K1V] is higher in protein stability index: 2.98 for the first, 3.26 for the second.

Compared with KYMARKVIEHCSNFKEENMDTSR [E2Y], KAMARKVIEHCSNFKEENMDTSR [E2A] is higher in protein stability index: 2.35 for the first, 3.23 for the second.

Going from KWMARKVIEHCSNFKEENMDTSR [E2W] to KVMARKVIEHCSNFKEENMDTSR [E2V], the protein stability index rises from 2.01 to 3.52.

First: KKMARKVIEHCSNFKEENMDTSR [E2K]
Second: KFMARKVIEHCSNFKEENMDTSR [E2F]
The protein stability index of the first is higher: 3.44 for the first, 2.11 for the second.

Going from KCMARKVIEHCSNFKEENMDTSR [E2C] to KLMARKVIEHCSNFKEENMDTSR [E2L], the protein stability index falls from 3.12 to 2.76.

Compared with KPMARKVIEHCSNFKEENMDTSR [E2P], KMMARKVIEHCSNFKEENMDTSR [E2M] is lower in protein stability index: 4.13 for the first, 3.42 for the second.

Going from KQMARKVIEHCSNFKEENMDTSR [E2Q] to KIMARKVIEHCSNFKEENMDTSR [E2I], the protein stability index falls from 3.53 to 3.27.

First: KTMARKVIEHCSNFKEENMDTSR [E2T]
Second: KHMARKVIEHCSNFKEENMDTSR [E2H]
The protein stability index of the first is higher: 3.39 for the first, 3.12 for the second.

Going from KNMARKVIEHCSNFKEENMDTSR [E2N] to KSMARKVIEHCSNFKEENMDTSR [E2S], the protein stability index falls from 3.4 to 2.74.

Going from KGMARKVIEHCSNFKEENMDTSR [E2G] to KDMARKVIEHCSNFKEENMDTSR [E2D], the protein stability index rises from 2.82 to 3.25.

Work on KRMARKVIEHCSNFKEENMDTSR [E2R] yielded a protein stability index of 3.57.
